Experimental findings from patent US20160137696A1 (Bristol-Myers Squibb, published 2016) are described below.

The chains are these.
B1: Example 14058 (peptide)
peptide: {CH2CO}-Y[NMeA]NP[Dap]L[Hyp]WS[Bzt][NMeNle][NMeNle]RCG[Pra]
modifications: thioether N-14; not fully specified (residue 16)
B2: Example 14054 (peptide)
peptide: YADPHQPWSWXXECGXG
modifications: as m108 (INT 1400C); Pra triazole-linked to vitamin E succinate 5-azidopentylamide
B3: Example 14056 (peptide)
peptide: YADPHKPWKWXXECGXD
modifications: as m107 (INT 1400B); Pra triazole-linked to vitamin E succinate 5-azidopentylamide
B4: Example 14057 (peptide)
peptide: {CH2CO}-Y[NMeA]DPHK[Hyp]WKW[NMeNle][NMeNle]ECG[Pra(3)]([triazole″-PEG8′-Suc-vitamin E])D
modifications: thioether N-14; reading uncertain
B5: Example 14051 (peptide)
peptide: YADPHKPWKWXXECGXG
modifications: as m106 (INT 1400A); Pra triazole-linked to vitamin E succinate 5-azidopentylamide
B6: Example 14053 (peptide)
peptide: {CH2CO}-Y[NMeA]DPHK[Hyp]WKW[NMeNle][NMeNle]ECG[Pra(3)]([triazole″-PEG6′-Suc-vitamin E])G
modifications: thioether N-14; reading uncertain
B7: INT-1400H (peptide)
peptide: {CH2CO}-Y[NMeA]DPHQ[Hyp]WSW[NMeNle][NMeNle]ECG[Pra]
modifications: thioether N-14; not fully specified (C-terminus); printed as ClAc-Tyr-mAla-Asp-Pro-His-Gln-Hyp-Trp-Ser-Trp-mNle-mNle-Glu-Cys-Gly-[(S)-propargylglycine]
notes: also called Intermediate 1400H
B8: INT-1400C (peptide)
peptide: {CH2CO}-Y[NMeA]DPHQ[Hyp]WSW[NMeNle][NMeNle]ECG[Pra]G
modifications: thioether N-14; not fully specified (C-terminus); printed as ClAc-Tyr-mAla-Asp-Pro-His-Gln-Hyp-Trp-Ser-Trp-mNle-mNle-Glu-Cys-Gly-[(S)-propargylglycine]-Gly
notes: also called Intermediate 1400C
B9: Example 14066 (peptide)
peptide: {CH2CO}-Y[NMeA]NP[Dap]L[Hyp]WSW[NMeNle][NMeNle]RCG[Pra′]([triazole-X1])
modifications: thioether N-14
B10: INT-1400G (peptide)
peptide: {CH2CO}-Y[NMeA]NP[Dap]L[Hyp]WSW[NMeNle][NMeNle]RCG[Pra]
modifications: thioether N-14; not fully specified (C-terminus); printed as ClAc-Tyr-mAla-Asn-Pro-Dap-Leu-Hyp-Trp-Ser-Trp-mNle-mNle-Arg-Cys-Gly-[(S)-propargylglycine]
notes: also called Intermediate 1400G
B11: INT-1400K (peptide)
peptide: {CH2CO}-[F3Phe][NMeF][NMeNle][dP]DV[NMeF][Orn][dP]WYLCG[Pra]
modifications: thioether N-13; not fully specified (C-terminus); printed as ClAc-F3Phe-mPhe-mNle-dPro-Asp-Val-mPhe-Orn-dPro-Trp-Tyr-Leu-Cys-Gly-[(S)-propargylglycine]
notes: also called Intermediate 1400K
B12: INT-1400A (peptide)
peptide: {CH2CO}-Y[NMeA]DPHK[Hyp]WKW[NMeNle][NMeNle]ECG[Pra]G
modifications: thioether N-14; not fully specified (C-terminus); printed as ClAc-Tyr-mAla-Asp-Pro-His-Lys-Hyp-Trp-Lys-Trp-mNle-mNle-Glu-Cys-Gly-[(S)-propargylglycine]-Gly
notes: also called Intermediate 1400A
B13: INT-1400E (peptide)
peptide: {CH2CO}-Y[NMeA]DPHK[Hyp]WK[Trp(1-CH2CO)][NMeNle][NMeNle]ECG[Pra]D
modifications: thioether N-14; not fully specified (C-terminus); printed as ClAc-Tyr-mAla-Asp-Pro-His-Lys-Hyp-Trp-Lys-“Trp”-mNle-mNle-Glu-Cys-Gly-[(S)-propargylglycine]-Asp
notes: also called Intermediate 1400E
B14: INT-1400B (peptide)
peptide: {CH2CO}-Y[NMeA]DPHK[Hyp]WKW[NMeNle][NMeNle]ECG[Pra]D
modifications: thioether N-14; not fully specified (C-terminus); printed as ClAc-Tyr-mAla-Asp-Pro-His-Lys-Hyp-Trp-Lys-Trp-mNle-mNle-Glu-Cys-Gly-[(S)-propargylglycine]-Asp
notes: also called Intermediate 1400B
B15: INT-1300C (peptide)
peptide: {CH2CO}-Y[NMeA]NP[Dap]L[Hyp]WS[Bzt][NMeNle][NMeNle]RCGG[Aha]
modifications: thioether N-14
B16: INT-1300Y (peptide)
peptide: {CH2CO}-Y[NMeA]DPHK[Hyp]WK[Trp(1-CH2CO)][NMeNle][NMeNle]ECG[Pra]-OH
modifications: thioether N-14
SMILES: C#CC[C@H](NC(=O)CNC(=O)[C@@H]1CSCC(=O)N[C@@H](Cc2ccc(O)cc2)C(=O)N(C)[C@@H](C)C(=O)N[C@@H](CC(=O)O)C(=O)N2CCC[C@H]2C(=O)N[C@@H](Cc2c[nH]cn2)C(=O)N[C@@H](CCCCN)C(=O)N2C[C@H](O)C[C@H]2C(=O)N[C@@H](Cc2c[nH]c3ccccc23)C(=O)N[C@@H](CCCCN)C(=O)N[C@@H](Cc2cn(CC(=O)O)c3ccccc23)C(=O)N(C)[C@@H](CCCC)C(=O)N(C)[C@@H](CCCC)C(=O)N[C@@H](CCC(=O)O)C(=O)N1)C(=O)O
notes: also called Intermediate 1300Y
B17: Example 14064 (peptide)
peptide: {CH2CO}-Y[NMeA]DPHK[Hyp]WKW[NMeNle][NMeNle]ECG[Pra(3)]G
modifications: thioether N-14; not fully specified (residue 16, C-terminus)
B18: INT-1400F (peptide)
peptide: {CH2CO}-Y[NMeA]DPHK[Hyp]WKW[NMeNle][NMeNle]ECG[Pra]
modifications: thioether N-14; not fully specified (C-terminus); printed as ClAc-Tyr-mAla-Asp-Pro-His-Lys-Hyp-Trp-Lys-Trp-mNle-mNle-Glu-Cys-Gly-[(S)-propargylglycine]
notes: also called Intermediate 1400F
B19: Example 14092 (peptide)
peptide: {CH2CO}-Y[NMeA]DPHK[Hyp]WK[Trp(1-CH2CO)][NMeNle][NMeNle]ECG[Pra″]([triazole-PEG11′-γGlu-C18 diacid])
modifications: thioether N-14
B20: Example 3619 (peptide)
peptide: {CH2CO}-F[NMeF][NMeNle][Sar]DV[NMeF]Y[NMeE]WYLCGGGK-NH2
modifications: thioether N-13
SMILES: CCCC[C@H]1C(=O)N(C)CC(=O)N[C@@H](CC(=O)O)C(=O)N[C@@H](C(C)C)C(=O)N(C)[C@@H](Cc2ccccc2)C(=O)N[C@@H](Cc2ccc(O)cc2)C(=O)N(C)[C@@H](CCC(=O)O)C(=O)N[C@@H](Cc2c[nH]c3ccccc23)C(=O)N[C@@H](Cc2ccc(O)cc2)C(=O)N[C@@H](CC(C)C)C(=O)N[C@H](C(=O)NCC(=O)NCC(=O)NCC(=O)N[C@@H](CCCCN)C(N)=O)CSCC(=O)N[C@@H](Cc2ccccc2)C(=O)N(C)[C@@H](Cc2ccccc2)C(=O)N1C
notes: order read from the list of couplings, which runs from C- to N-terminus
B21: Example 3214 (peptide)
peptide: {CH2CO}-[Phe(3,4,5-F3)][NMeF][NMeNle]PDV[NMeF]Y[NMeE]WYLCGGGK-NH2
modifications: thioether N-13; not fully specified (residue 4); printed as ClAc-Phe(3,4,5-tri-F)-[N-Me]Phe-[N-Me]Nle-cis-(D)-Pro(4-OH)-Asp-Val-[N-Me]Phe-Tyr-[N-Me]Glu-Trp-Tyr-Leu-Cys-Gly-Gly-Gly-Lys
notes: as for B20
B22: INT-1400D (peptide)
peptide: {CH2CO}-Y[NMeA]DPHK[Hyp]WK[Trp(1-CH2CO)][NMeNle][NMeNle]ECG[Pra]G
modifications: thioether N-14; not fully specified (C-terminus); printed as ClAc-Tyr-mAla-Asp-Pro-His-Lys-Hyp-Trp-Lys-“Trp”-mNle-mNle-Glu-Cys-Gly-[(S)-propargylglycine]-Gly

Starred links: 1 amine or outer side, 2 acyl side, 3 side chain; linkers in the order of their positions; H or OH if unused. Positions of bridges follow the written chain, without caps; N, C: chain ends. Non-standard residues stand in square brackets, D forms with d. Groups on a side chain read outwards from the residue. Primed or numbered codes have the meaning given here. No end group written: not given here. *: point of attachment. PEG8′ = PEG8 unit (23-azido-3,6,9,12,15,18,21-heptaoxatricosyl, i.e. an eight-unit PEG spacer) linking the triazole to vitamin E succinate; Pra′ = propargylglycine (built in as LPH), clicked to a 1-substituted triazol-4-yl-alanine, O=C([C@H](Cc1cn([*:3])nn1)N[*:1])[*:2]; PEG11′ = PEG11 spacer (eleven ethylene glycol units, 3,6,...,33-undecaoxa) between the triazole and gamma-Glu-C18 diacid; PEG6′ = PEG6 spacer (17-azido-3,6,9,12,15-pentaoxaheptadecyl) linking the triazole to vitamin E succinate; X1 = (S)‑3‑carboxy‑3‑(15-carboxypentadecanoylamino)propyl, O=C(O)CCCCCCCCCCCCCCC(=O)N[C@@H](CC*)C(=O)O; Pra″ = its azide, alkyne or alkene has reacted where a group follows in round brackets; Pra(3) = propargylglycine, clicked to an azide to give a triazolyl-alanine; triazole = 1,2,3-triazole formed by click of the Pra alkyne with the azide; Trp(1-CH2CO) = O=C([C@H](Cc1cn(CC(=O)[*:3])c2ccccc12)N[*:1])[*:2]; Phe(3,4,5-F3) = N[C@@H](Cc1cc(F)c(F)c(F)c1)C(=O)O; C18 diacid = O=C(O)CCCCCCCCCCCCCCCCC(=O)*; γGlu = O=C(O)[C@H](CCC(=O)[*:2])N[*:1]; Aha = [N-]=[N+]=NCC[C@H](N)C(=O)O; Hyp = O=C(O)[C@@H]1C[C@@H](O)CN1; NMeF = CN[C@@H](Cc1ccccc1)C(=O)O; F3Phe = trifluoro-phenylalanine; NMeE = CN[C@@H](CCC(=O)O)C(=O)O; NMeNle = CCCC[C@H](NC)C(=O)O; Suc = O=C(CCC(=O)[*:2])[*:1]; triazole″ = not defined here; Bzt = benzothienylalanine; NMeA = CN[C@@H](C)C(=O)O; Orn = NCCC[C@H](N)C(=O)O; Pra = C#CC[C@H](N)C(=O)O; Dap = NC[C@H](N)C(=O)O; Sar = CNCC(=O)O

The target in one assay is T1, Recombinant Human PD-L1-TVMV-His (human, UniProt Q9NZQ7 19-239).
T1 construct: expressed in HEK293T cells; also called PD-L1-His; hPD-L1(19-239)-TVMV-His
T1 sequence (Q9NZQ7 other isoform, or with tags, fused parts or gaps limits assumed): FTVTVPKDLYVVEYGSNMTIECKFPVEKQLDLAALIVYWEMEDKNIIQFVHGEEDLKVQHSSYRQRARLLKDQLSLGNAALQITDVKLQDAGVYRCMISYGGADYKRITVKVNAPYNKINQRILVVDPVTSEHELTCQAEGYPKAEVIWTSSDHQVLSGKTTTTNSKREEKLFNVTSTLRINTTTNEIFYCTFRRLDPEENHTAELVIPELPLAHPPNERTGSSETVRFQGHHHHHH
In words: HTRF vs PD-1-Ig; A = IC50 0.10-1.6 µM. How it is done:
(§1) Homogenous Time-Resolved Fluorescence (HTRF) Assays of Binding of Soluble PD-1 to Soluble PD-L1. Soluble PD-1 and soluble PD-L1 refers to proteins with carboxyl-end truncations that remove the transmembrane-spanning regions and are fused to heterologous sequences, specifically the Fc portion of the human immunoglobuling G sequence (Ig) or the hexahistidine epitope tag (His). All binding studies were performed in an HTRF assay buffer consisting of dPBS supplemented with 0.1% (w/v) bovine serum albumin and 0.05% (v/v) Tween-20. For the PD-1-Ig/PD-L1-His binding assay, inhibitors were pre-incubated with PD-L1-His (10 nM final) for 15 m in 4 μl of assay buffer, followed by addition of PD-1-Ig (20 nM final) in 1 μl of assay buffer and further incubation for 15 m. PD-L1 fusion proteins from either human, cynomologous macaques, mouse, or other species were used. HTRF detection was achieved using europium crypate-labeled anti-Ig monoclonal antibody (1 nM final) and allophycocyanin (APC) labeled anti-His monoclonal antibody (20 nM final). Antibodies were diluted in HTRF detection buffer and 5 μl was dispensed on top of binding reaction. The reaction was allowed to equilibrate for 30 minutes and signal (665 nm/620 nm ratio) was obtained using an EnVision fluorometer. Additional binding assays were established between PD-I-Ig/PD-L2-His (20 and 5 nM, respectively), CD80-His/PD-L1-Ig (100 and 10 nM, respectively) and CD80-His/CTLA4-Ig (10 and 5 nM, respectively). Binding/competition studies between biotinylated Compound No. 71 and human PD-L1-His were performed as follows. Macrocyclic peptide inhibitors were pre-incubated with PD-L1-His (10 nM final) for 60 minutes in 4 μl of assay buffer followed by addition of biotinylated Compound No. 71 (0.5 nM final) in 1 μl of assay buffer. Binding was allowed to equilibrate for 30 minutes followed by addition of europium crypated labeled Streptavidin (2.5 pM final) and APC-labeled anti-His (20 nM final) in 5 μl of HTRF buffer. The reaction was allowed to equilibrate for 30 m and signal (665 nm/620 nm ratio) was obtained using an EnVision fluorometer.
On the technique in general: Time-resolved FRET reads energy transfer from a long-lived donor to a nearby acceptor.
As a reminder, the IC50 is the concentration at which inhibition is half-maximal. Turning to B1, the IC50 was in the range of 100 to 1600 nM. Same read-out and setting: with B2 the figure was 100 to 1600 nM. In the case of B3, the IC50 is 100 to 1600 nM. On the same count and under the same terms, with B4 the figure was 100 to 1600 nM. For the molecule B5, the half-inhibitory concentration (IC50) was 100 to 1600 nM.

As for B6, the IC50 lay in the range of 100 to 1600 nM.

The target of another assay is T1, Recombinant Human PD-L1-TVMV-His. In words: HTRF vs PD-1-Ig; C = IC50 0.0003-0.0099 µM. The procedure:
as §1
On to B7, for which the IC50 was 0.3 to 9.9 nM. The same measure, in the same setting: next, B8: 0.3 to 9.9 nM; B9: 0.3 to 9.9 nM. Consider B10, for which the IC50 lay within 0.3 to 9.9 nM.

With B11, the IC50 fell in the range of 0.3 to 9.9 nM. Consider B12, for which the IC50 was in the range of 0.3 to 9.9 nM. In the case of B13, the IC50 fell in the range of 0.3 to 9.9 nM. Same read-out and setting: next, B14: 0.3 to 9.9 nM; B15: 0.3 to 9.9 nM; B16: 0.3 to 9.9 nM. The same measure, in the same setting: next, B17: 0.3 to 9.9 nM. Turning to B18, the IC50 was 0.3 to 9.9 nM.

In the case of B19, the IC50 lay in the range of 0.3 to 9.9 nM. As to B20, the IC50 was 0.3 to 9.9 nM. For B21, the 50% inhibitory concentration (IC50) lay within 0.3 to 9.9 nM. With B22, the IC50 lay within 0.3 to 9.9 nM.
